Measurements reported in US8815527 (Stanford University, dated 2014).

Columns and labels:
[1] = target: p38 MAPK phosphorylated at Thr180/Tyr182; assay: flow cytometry, Jurkat T cells +Anisomycin; gate around the population with phospho-p38 stain about 15 to 100
[2] = target: AKT phosphorylated at Ser473; assay: flow cytometry, Jurkat T cells +PDGF, AKT+ gated; number stands under the right-hand population (ser473 stain about 50, thr308 stain about 50); one dotted box encloses both populations
[3] = target: T1, Leukocyte Function Antigen-1 (LFA-1) on the cell surface (human, UniProt P20701 26-1170; P05107 23-769); assay: cell-based or functional assay
[4] = target: T1, Leukocyte Function Antigen-1 (LFA-1) on …; assay: flow cytometry, ICAM-2-FITC titration on Jurkat cells, single cell analysis
Method: Molecular weight was calculated using relative distance migration from a molecular weight standard. Concentration was determined using serial dilutions of BSA as a standard. […] Mean fluorescence intensity was plotted per time of a gated homogenous cell population. Flow rate was maintained at 200-300 cells/second, with fluorescence intensity values acquired at 10 millisecond intervals for 1200 seconds. […] Cells were washed 1×, and analyzed for mean fluorescent intensity (MFI) of 10^4 cells. […] Values were fit to the equation Y=m1*M0/(m2+M0) (see materials and methods).

[5] = target: β4 integrin (NIH3T3-derived cells) (UniProt A2A863 29-1818, limits assumed); assay: two-column affinity chromatography (ICAM-2 solid support, then streptavidin-agarose) and immunoblot
[6] = target: ezrin in NIH3T3 cells (UniProt P26040 1-586); assay: co-immunoprecipitation (IP ICAM-2, immunoblot ezrin) from transduced NIH3T3 cells
From the text: Control lysates were not subjected to immunoprecipitation and reflect positive controls for detected interacting protein. […] Phosphotransfer of ATP to peptide substrate was detected by scintillation counting and presented as counts per minute CPM.

T1 sequence (P20701 26-1170, chain 1 of 2): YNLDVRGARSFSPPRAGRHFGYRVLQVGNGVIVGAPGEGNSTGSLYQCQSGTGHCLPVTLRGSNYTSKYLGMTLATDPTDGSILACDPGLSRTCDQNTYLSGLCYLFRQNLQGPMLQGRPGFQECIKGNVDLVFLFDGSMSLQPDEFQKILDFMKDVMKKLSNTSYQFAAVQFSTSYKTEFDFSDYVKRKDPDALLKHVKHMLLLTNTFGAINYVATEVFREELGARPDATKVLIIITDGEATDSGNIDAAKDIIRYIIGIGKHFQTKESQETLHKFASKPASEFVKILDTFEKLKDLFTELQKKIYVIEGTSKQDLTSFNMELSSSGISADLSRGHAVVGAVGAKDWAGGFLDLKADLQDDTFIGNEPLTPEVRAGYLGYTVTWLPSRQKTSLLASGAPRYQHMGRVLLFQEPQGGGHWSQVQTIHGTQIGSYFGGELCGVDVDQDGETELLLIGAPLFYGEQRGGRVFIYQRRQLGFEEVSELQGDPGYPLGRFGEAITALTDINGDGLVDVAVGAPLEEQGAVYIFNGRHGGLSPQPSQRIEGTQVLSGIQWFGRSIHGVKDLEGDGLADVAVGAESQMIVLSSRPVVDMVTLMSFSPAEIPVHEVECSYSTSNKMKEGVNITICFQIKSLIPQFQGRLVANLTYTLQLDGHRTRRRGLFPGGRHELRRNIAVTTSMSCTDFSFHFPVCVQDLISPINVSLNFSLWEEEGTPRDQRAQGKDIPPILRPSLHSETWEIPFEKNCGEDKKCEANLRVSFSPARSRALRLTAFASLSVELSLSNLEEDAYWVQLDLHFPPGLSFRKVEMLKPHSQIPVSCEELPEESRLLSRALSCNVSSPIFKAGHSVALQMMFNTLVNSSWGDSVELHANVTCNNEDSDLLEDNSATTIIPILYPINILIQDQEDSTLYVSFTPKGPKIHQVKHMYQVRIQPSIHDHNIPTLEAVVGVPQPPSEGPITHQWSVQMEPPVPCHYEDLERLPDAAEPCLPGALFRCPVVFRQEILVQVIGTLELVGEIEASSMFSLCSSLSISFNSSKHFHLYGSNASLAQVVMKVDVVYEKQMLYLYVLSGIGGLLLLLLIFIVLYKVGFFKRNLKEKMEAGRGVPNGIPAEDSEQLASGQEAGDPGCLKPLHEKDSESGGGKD
T1 sequence (P05107 23-769, chain 2 of 2): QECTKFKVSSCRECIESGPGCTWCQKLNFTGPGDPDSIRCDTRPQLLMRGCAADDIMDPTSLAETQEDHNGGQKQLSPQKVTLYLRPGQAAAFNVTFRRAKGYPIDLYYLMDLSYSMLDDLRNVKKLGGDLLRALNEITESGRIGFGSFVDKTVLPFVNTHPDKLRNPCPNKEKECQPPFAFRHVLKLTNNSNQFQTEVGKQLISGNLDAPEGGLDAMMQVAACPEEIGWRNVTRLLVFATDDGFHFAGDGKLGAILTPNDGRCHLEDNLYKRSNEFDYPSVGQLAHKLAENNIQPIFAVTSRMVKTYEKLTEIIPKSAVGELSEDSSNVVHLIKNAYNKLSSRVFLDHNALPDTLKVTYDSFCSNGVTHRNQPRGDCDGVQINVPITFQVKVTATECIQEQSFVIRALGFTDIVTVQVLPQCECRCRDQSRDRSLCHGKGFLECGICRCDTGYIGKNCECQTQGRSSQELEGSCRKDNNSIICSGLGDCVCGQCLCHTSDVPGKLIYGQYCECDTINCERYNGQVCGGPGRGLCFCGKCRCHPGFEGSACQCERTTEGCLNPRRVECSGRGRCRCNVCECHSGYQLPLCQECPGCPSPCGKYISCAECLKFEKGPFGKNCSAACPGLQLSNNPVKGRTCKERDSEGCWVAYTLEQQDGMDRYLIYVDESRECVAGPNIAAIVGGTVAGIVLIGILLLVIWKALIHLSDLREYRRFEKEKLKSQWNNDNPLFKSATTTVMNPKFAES
ezrin in NIH3T3 cells, sequence (P26040 whole entry): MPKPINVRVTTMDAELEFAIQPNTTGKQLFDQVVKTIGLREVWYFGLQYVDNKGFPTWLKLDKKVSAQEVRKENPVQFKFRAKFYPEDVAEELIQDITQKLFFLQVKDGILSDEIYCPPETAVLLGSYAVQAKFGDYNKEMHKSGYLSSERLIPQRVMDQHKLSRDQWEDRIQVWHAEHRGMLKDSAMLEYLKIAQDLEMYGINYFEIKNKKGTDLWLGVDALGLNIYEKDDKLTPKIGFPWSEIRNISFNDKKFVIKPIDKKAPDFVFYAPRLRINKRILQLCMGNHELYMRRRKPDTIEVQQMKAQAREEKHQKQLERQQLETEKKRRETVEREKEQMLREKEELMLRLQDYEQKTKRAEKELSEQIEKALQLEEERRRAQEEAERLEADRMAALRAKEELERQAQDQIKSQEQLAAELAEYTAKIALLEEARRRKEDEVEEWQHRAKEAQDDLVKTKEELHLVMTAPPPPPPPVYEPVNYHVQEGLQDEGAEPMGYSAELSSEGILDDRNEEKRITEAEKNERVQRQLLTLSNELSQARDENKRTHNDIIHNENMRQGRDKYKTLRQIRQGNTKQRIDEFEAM
β4 integrin (NIH3T3-derived cells), sequence (A2A863 29-1818 limits assumed): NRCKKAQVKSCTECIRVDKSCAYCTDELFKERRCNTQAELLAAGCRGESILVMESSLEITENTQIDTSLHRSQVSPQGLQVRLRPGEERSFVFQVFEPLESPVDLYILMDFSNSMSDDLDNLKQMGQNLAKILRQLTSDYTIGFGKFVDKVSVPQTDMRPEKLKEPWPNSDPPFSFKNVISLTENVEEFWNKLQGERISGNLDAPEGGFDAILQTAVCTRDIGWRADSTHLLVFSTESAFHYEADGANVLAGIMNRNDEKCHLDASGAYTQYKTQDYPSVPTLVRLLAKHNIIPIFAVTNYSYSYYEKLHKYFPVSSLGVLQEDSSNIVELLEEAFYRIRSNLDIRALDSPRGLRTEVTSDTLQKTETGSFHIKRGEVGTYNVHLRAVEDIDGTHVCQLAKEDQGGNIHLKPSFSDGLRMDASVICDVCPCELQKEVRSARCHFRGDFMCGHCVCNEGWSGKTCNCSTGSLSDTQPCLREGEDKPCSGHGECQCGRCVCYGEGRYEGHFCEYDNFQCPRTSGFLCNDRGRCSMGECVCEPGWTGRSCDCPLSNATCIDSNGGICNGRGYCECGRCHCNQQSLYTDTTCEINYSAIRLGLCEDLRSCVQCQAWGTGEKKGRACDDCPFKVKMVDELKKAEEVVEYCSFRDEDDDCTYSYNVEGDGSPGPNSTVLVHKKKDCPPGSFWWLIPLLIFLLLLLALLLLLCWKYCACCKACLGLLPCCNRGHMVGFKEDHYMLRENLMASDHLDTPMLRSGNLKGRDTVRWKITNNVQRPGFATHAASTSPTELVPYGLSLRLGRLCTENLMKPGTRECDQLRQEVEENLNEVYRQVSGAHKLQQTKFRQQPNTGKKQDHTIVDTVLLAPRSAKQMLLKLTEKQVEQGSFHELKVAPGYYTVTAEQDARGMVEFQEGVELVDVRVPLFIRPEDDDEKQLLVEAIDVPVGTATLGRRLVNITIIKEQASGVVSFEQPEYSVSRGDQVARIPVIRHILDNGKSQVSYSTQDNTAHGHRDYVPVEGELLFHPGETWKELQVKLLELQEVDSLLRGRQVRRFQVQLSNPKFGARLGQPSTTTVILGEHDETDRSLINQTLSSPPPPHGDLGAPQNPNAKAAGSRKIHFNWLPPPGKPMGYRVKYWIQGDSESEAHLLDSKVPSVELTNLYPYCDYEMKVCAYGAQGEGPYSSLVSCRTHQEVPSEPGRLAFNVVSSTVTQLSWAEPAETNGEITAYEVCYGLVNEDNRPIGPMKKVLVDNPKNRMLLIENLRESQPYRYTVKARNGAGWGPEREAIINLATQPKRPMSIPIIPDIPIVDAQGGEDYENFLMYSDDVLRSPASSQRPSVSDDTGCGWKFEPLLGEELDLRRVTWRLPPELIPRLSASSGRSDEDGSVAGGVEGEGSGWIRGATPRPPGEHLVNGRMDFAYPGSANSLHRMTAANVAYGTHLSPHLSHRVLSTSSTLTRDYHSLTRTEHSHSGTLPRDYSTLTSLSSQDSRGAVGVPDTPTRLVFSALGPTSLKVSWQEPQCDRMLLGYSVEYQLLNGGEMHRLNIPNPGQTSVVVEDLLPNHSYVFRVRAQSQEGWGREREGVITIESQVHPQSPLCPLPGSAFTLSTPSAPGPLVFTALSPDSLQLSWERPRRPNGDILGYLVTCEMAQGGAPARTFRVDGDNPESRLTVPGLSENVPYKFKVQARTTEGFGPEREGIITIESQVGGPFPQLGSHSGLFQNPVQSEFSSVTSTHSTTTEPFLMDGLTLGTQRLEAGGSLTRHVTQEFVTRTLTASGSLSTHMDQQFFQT

phospho-p38 MAP kinase (Thr180/Tyr182) monoclonal antibody 28B10
percent of cells in the drawn gate (number printed beside the gate) [1]: 13.3

phospho-AKT Ser473 monoclonal antibody 4E2
percent of gated cells (number printed below the gate) [2]: 43.9

B1: soluble human ICAM-2 protein, biochemically purified from retrovirally transduced NIH3T3 cells (ligand, UniProt P13598 25-275, looked up)
chain: KVFEVHVRPKKLAVEPKGSLEVNCSTTCNQPEVGGLETSLDKILLDEQAQWKHYLVSNISHDTVLQCHFTCSGKQESMNSNVSVYQPPRQVILTLQPTLVAVGKSFTIECRVPTVEPLDSLTLFLFRGNETLHYETFGKAAPAPQEATATFNSTADREDGHRNFSCLAVLDLMSRGGNIFHKHSAPKMLEIYEPVSDSQMVIIVTVVSVLLSLFVTSVLLCFIFGQHLRQQRMGTYGVRAAWRRLPQAFRP
modifications: FITC (NHS-fluorescein) conjugate where used as ICAM-2-FITC, sites not stated
notes: mature; also called sICAM-2; soluble ICAM-2
stimulus needed for similar expression of CD69 and CD25 on naive CD4+ T cells, 6 hr [3]: 10000 fold | Kd [4]: 217 nM | binding result [5]: no binding

B2: human ICAM-2, full length, in cells (receptor, UniProt P13598 25-275, looked up)
chain: KVFEVHVRPKKLAVEPKGSLEVNCSTTCNQPEVGGLETSLDKILLDEQAQWKHYLVSNISHDTVLQCHFTCSGKQESMNSNVSVYQPPRQVILTLQPTLVAVGKSFTIECRVPTVEPLDSLTLFLFRGNETLHYETFGKAAPAPQEATATFNSTADREDGHRNFSCLAVLDLMSRGGNIFHKHSAPKMLEIYEPVSDSQMVIIVTVVSVLLSLFVTSVLLCFIFGQHLRQQRMGTYGVRAAWRRLPQAFRP
notes: whole, on cells; Used in co-immunoprecipitations from cell lysates, FACS staining and cell mixing assays; also called ICAM-2 cells; CD102
binding result [6]: binds
